Patent US20180282386A1 (REGENTS OF THE UNIVERSITY OF MINNESOTA, published 2018)

T1: CD133 on Caco-2 cells (human, UniProt O43490 20-865)
T1 construct: whole, on cells; also called prominin-1
T1 sequence (looked up): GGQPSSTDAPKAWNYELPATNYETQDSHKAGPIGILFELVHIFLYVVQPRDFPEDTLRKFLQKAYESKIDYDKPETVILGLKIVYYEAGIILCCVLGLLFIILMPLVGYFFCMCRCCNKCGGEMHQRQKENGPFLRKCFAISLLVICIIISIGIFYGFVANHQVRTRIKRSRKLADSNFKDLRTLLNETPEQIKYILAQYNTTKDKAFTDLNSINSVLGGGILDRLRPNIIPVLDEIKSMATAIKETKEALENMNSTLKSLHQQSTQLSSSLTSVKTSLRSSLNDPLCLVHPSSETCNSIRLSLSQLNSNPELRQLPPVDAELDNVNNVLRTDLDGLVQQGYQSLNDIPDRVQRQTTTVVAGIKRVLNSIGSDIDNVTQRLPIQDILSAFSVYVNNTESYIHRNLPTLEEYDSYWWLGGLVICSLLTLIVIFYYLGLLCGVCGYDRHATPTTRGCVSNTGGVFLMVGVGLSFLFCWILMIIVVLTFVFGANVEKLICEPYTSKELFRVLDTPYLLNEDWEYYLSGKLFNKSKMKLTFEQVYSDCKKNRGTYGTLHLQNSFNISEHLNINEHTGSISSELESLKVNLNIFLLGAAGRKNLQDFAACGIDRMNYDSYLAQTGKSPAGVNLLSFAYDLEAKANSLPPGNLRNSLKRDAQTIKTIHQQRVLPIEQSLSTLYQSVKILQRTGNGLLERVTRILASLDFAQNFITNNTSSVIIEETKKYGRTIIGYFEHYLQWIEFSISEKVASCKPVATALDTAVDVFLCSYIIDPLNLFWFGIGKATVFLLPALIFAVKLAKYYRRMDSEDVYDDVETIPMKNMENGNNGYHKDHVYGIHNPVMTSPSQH


Legend:
[1] = biological target: T1, CD133 on Caco-2 cells; assay: flow cytometry on Caco-2 cells, competition with FITC-labeled 1615133 TriKE
[2] = biological target: EpCAM on HT-29 cells (human) (UniProt P16422); assay: flow cytometry, direct binding to CD33- EpCAM+ HT-29 cells (specificity control), 4 µg drug
Sequence of EpCAM on HT-29 cells (human) (P16422 24-314): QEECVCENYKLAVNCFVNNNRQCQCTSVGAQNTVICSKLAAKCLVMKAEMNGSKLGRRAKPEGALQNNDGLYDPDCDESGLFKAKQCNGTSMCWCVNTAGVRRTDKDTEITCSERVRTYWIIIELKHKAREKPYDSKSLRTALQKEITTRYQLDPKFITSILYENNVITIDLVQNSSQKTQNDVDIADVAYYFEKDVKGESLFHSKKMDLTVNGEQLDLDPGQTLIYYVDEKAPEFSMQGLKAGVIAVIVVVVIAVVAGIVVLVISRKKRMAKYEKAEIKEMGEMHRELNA

Binder | binding result [1] | % Positive Cells [2] [%]
anti-CD133 scFv (scFv, also called monomeric CD133 scFv; anti-CD133 scFv from clone 7) scFv: MDIVLSQSPAIMSASPGEKVTISCSASSSVSYMYWYQQKPGSSPKPWIYRTSNLASGVPARFSGSGSGTSYSLTISSMEAEDAATYYCQQYHSYPPTFGAGTKLELKSSGGGGSGGGGGGSSRSSLEVKLVESGPELKKPGETVKISCKASGYTFTDYSMHWVNQAPGKGLKWMGWINTETGEPSYADDFKGRFAFSLETSASTAYLQINNLKNEDTATYFCATDYGDYFDYWGQGTTLTVSS | binds | 
1633 bispecific killer engager (BiKE) (bispecific antibody, FITC label (site not stated)) MEVQLVESGGGVVRPGGSLRLSCAASGFTFDDYGMSWVRQAPGKGLEWVSGINWNGGSTGYADSVKGRFTISRDNAKNSLYLQMNSLRAEDTAVYYCARGRSLLFDYWGQGTLVTVSRGGGGSGGGGSGGGGSSELTQDPAVSVALGQTVRITCQGDSLRSYYASWYQQKPGQAPVLVIYGKNNRPSGIPDRFSGSSSGNTASLTITGAQAEDEADYYCNSRDSSGNHVVFGGGTKLTVLPSGQAGAAASESLFVSNHAYQVQLVQSGAEVKKPGSSVKVSCKASGYTFTDYNMHWVRQAPGQGLEWIGYIYPYNGGTGYNQKFKSKATITADESTNTAYMELSSLRSEDTAVYYCARGRPAMDYWGQGTLVTVSSGGGGSGGGGSGGGGSDIQMTQSPSSLSASVGDRVTITCRASESVDNYGISFMNWFQQKPGKAPKLLIYAASNQGSGVPSRFSGSGSGTDFTLTISSLQPDDFATYYCQQSKEVPWTFGQGTKVEIK |  | 1
